From PMC7545097, “Mapping the native interaction surfaces of PREP1 with PBX1 by cross-linking mass-spectrometry and mutagenesis” (Scientific Reports, 2020)
Read-outs that look alike come from different tables or passages of the source.

Key:
[1] = biological target: T1, PBX1_(1-430), wild-type recombinant (human, UniProt P40424 1-430); assay: time-resolved fluorescence immunoassay (TR-FIA); plate coated with monoclonal anti-PBX1; PBX1 pre-incubated with PREP1 or MEIS1 for 1 h on ice, 10 µg/mL in 1% BSA PBS, 1 h at room temperature on the plate; detected with anti-PREP1 or biotinylated anti-MEIS1/2 and Eu^3+ conjugates; normalised to the wild-type protein taken as 1
T1 construct: also called wild-type PBX1; purified recombinant human PBX1; source: E. coli, purified
T1 sequence (looked up): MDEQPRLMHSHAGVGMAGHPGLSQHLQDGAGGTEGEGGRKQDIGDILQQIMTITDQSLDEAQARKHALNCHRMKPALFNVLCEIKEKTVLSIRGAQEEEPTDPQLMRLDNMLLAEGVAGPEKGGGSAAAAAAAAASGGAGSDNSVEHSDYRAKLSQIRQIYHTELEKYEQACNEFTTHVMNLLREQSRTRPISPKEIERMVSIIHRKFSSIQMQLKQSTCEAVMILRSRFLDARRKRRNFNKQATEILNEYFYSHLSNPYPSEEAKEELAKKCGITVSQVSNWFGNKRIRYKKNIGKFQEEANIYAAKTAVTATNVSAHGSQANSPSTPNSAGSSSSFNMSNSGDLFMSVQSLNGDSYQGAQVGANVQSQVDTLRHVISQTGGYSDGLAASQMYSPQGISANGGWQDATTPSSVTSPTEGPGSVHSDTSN

PBX1Δ197-204 (human) = PBX1Δ197-204 (human) (UniProt P40424); assay: as above
PBX1Δ43-55 = biological target: T2, PBX1Δ43-55 (human, UniProt P40424 1-430, Δ43-55); assay: as above; settings: both partners purified
T2 construct: PBX1, residues 1-430, with an internal deletion; source: E. coli, purified
T2 sequence (looked up): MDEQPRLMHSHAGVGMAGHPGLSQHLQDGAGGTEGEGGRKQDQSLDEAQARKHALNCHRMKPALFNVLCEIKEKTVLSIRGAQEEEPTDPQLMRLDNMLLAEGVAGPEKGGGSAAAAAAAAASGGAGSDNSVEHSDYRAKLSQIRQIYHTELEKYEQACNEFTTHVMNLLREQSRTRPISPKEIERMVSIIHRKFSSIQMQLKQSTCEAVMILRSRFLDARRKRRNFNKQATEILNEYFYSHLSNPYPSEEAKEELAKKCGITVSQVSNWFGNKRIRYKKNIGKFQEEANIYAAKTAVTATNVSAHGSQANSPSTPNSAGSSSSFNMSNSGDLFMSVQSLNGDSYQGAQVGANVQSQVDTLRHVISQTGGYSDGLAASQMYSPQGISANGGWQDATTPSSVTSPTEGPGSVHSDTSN

PBX1 Δ77-84 = biological target: T3, PBX1 Δ77-84 (human, UniProt P40424 1-430, Δ77−84); assay: as above; settings: both partners purified
T3 construct: PBX1, residues 1-430, with an internal deletion; source: E. coli, purified
T3 sequence (looked up): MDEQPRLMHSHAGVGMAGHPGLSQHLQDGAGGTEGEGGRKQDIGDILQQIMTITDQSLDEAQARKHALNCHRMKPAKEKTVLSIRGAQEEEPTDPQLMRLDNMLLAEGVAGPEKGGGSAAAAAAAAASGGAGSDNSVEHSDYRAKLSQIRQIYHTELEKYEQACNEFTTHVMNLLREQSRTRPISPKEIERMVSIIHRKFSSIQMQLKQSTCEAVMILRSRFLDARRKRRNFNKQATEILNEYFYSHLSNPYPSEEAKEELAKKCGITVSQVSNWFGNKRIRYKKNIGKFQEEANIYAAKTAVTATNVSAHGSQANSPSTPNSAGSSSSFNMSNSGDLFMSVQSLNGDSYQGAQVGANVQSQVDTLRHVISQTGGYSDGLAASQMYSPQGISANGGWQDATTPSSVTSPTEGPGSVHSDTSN

PBX1 Δ105-113 = biological target: T4, PBX1 Δ105-113 (human, UniProt P40424 1-430, Δ105-113); assay: as above; settings: both partners purified
T4 construct: PBX1, residues 1-430, with an internal deletion; source: E. coli, purified
T4 sequence (looked up): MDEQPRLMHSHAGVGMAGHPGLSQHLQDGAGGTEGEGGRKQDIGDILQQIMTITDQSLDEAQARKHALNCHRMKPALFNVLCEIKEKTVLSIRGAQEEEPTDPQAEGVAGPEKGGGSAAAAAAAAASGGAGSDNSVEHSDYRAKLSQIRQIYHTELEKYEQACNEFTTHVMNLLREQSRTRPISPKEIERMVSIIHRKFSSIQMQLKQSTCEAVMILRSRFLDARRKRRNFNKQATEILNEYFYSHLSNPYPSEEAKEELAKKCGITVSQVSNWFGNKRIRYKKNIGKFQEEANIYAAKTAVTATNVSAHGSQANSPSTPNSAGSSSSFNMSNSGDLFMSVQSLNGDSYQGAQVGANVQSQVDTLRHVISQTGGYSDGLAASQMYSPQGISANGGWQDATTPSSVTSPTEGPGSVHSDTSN

PREP1_(1-344) = biological target: T5, PREP1_(1-344) (UniProt P55347 1-344); assay: cross-linking; purified complex at 1 mg/ml in 50 mM borate-buffered saline, 1 mM BS^3, 1 h at room temperature; SDS-PAGE, in-gel Glu-C and trypsin digestion, nLC-ESI-MS/MS, pLink 2; two biological replicates; settings: both partners purified
T5 construct: PREP1 (PKNOX1), residues 1-344, lacking the C-terminal region; Second cassette of the di-cistronic vector pGEX-6P-2RBS; also called PKNOX1; C-terminal truncated PREP1; source: E. coli, co-expressed with PBX1(1-308), purified as a complex (cation exchange, SEC on Superose 6)
T5 sequence (looked up): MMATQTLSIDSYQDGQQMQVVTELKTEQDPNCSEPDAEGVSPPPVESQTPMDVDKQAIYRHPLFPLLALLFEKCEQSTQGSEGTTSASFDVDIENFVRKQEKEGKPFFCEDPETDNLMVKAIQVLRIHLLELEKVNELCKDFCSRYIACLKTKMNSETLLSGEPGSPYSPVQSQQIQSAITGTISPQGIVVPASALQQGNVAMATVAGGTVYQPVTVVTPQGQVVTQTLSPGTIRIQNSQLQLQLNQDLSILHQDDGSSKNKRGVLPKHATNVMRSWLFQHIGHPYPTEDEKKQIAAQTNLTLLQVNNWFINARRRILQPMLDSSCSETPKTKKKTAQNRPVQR

[2] = biological target: T6, full-length MEIS1 (MEIS1_(1-390)) in the purified MEIS1-PBX1 complex (UniProt O00470 1-390); assay: as above; settings: both partners purified
T6 construct: MEIS1, full length, residues 1-390; source: E. coli, purified as a complex with PBX1(1-308)
T6 sequence (looked up): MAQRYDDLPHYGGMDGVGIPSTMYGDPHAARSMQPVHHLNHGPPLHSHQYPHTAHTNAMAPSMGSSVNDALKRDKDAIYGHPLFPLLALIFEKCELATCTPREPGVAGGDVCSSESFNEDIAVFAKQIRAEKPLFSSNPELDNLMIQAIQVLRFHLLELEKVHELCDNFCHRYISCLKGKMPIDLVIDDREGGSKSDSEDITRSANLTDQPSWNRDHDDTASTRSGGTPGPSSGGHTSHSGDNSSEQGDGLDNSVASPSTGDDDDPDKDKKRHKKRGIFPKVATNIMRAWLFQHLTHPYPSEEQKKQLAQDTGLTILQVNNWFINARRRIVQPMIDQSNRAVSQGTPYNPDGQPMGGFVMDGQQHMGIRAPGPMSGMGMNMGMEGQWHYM

[3] = biological target: T1, PBX1_(1-430), wild-type recombinant; assay: ELISA; PBX1 wild-type coated at 0.1 µM in 100 mM Tris–HCl pH 7.5; GST-fused proteins at 0.23 nM to 0.5 µM, 1 h at 37 °C; anti-GST detection; GST signal subtracted; one-site binding model; settings: both partners purified

PREP1 HR2m (I122A/L125A/L129A/L132A), TR-FIA (from UniProt P55347 1-436) (natural protein)
binding relative to wild type [1]: 30%

B1: PREP1 L132A (natural protein, UniProt P55347 1-436, looked up)
chain: MMATQTLSIDSYQDGQQMQVVTELKTEQDPNCSEPDAEGVSPPPVESQTPMDVDKQAIYRHPLFPLLALLFEKCEQSTQGSEGTTSASFDVDIENFVRKQEKEGKPFFCEDPETDNLMVKAIQVLRIHLLEAEKVNELCKDFCSRYIACLKTKMNSETLLSGEPGSPYSPVQSQQIQSAITGTISPQGIVVPASALQQGNVAMATVAGGTVYQPVTVVTPQGQVVTQTLSPGTIRIQNSQLQLQLNQDLSILHQDDGSSKNKRGVLPKHATNVMRSWLFQHIGHPYPTEDEKKQIAAQTNLTLLQVNNWFINARRRILQPMLDSSCSETPKTKKKTAQNRPVQRFWPDSIASGVAQPPPSELTMSEGAVVTITTPVNMNVDSLQSLSSDGATLAVQQVMMAGQSEDESVDSTEEDAGALAPAHISGLVLENSDSLQ
notes: PREP1 (PKNOX1), residues 1-436
binding relative to wild type ([1]; both partners purified): 40%

B2: MEIS1_(1-390), wild-type recombinant (TR-FIA) (natural protein, UniProt O00470 1-390, looked up)
chain: T6 sequence (looked up)
notes: MEIS1, full length, residues 1-390; also called wild-type MEIS1; source: E. coli, purified
binding relative to wild type (PBX1Δ197-204 (human)): 45% | binding relative to wild type (PBX1Δ43-55): 60% | binding relative to wild type (PBX1 Δ77-84): 35% | binding result (PBX1 Δ105-113): binds

B3: PBX1_(1-308) (domain or fragment, human, UniProt P40424 1-308, looked up)
chain: MDEQPRLMHSHAGVGMAGHPGLSQHLQDGAGGTEGEGGRKQDIGDILQQIMTITDQSLDEAQARKHALNCHRMKPALFNVLCEIKEKTVLSIRGAQEEEPTDPQLMRLDNMLLAEGVAGPEKGGGSAAAAAAAAASGGAGSDNSVEHSDYRAKLSQIRQIYHTELEKYEQACNEFTTHVMNLLREQSRTRPISPKEIERMVSIIHRKFSSIQMQLKQSTCEAVMILRSRFLDARRKRRNFNKQATEILNEYFYSHLSNPYPSEEAKEELAKKCGITVSQVSNWFGNKRIRYKKNIGKFQEEANIYAAK
notes: PBX1, residues 1-308, lacking the C-terminal region; First cassette of the di-cistronic vector pGEX-6P-2RBS, with PREP1 in the second; also called C-terminal truncated PBX1; source: E. coli, purified as a complex with PREP1(1-344) or with MEIS1 (ion exchange, SEC on Superose 6)
binding result (PREP1_(1-344)): binds | binding result [2]: binds

B4: GST-fused wild-type MEIS1 (natural protein, UniProt O00470 1-390, looked up)
chain: T6 sequence (looked up)
notes: MEIS1, full length, residues 1-390; Detected through GST in the ELISA; source: E. coli, purified
Kd [3]: 0.08 ± 0.017 µM
